Experimental data as given in paper PMC9726900 (2022).

Target: 46w60 nucleosome (recombinant human histone octamer on Widom 601 DNA with 46-bp and 60-bp flanks), … (human, UniProt P0C0S8 1-130; P62807 1-126; P68431 1-136; P62805 1-103)
Assay: MST

B1: CHD4(1–1540) (domain or fragment)
chain: MASGLGSPSPCSAGSEEEDMDALLNNSLPPPHPENEEDPEEDLSETETPKLKKKKKPKKPRDPKIPKSKRQKKERMLLCRQLGDSSGEGPEFVEEEEEVALRSDSEGSDYTPGKKKKKKLGPKKEKKSKSKRKEEEEEEDDDDDSKEPKSSAQLLEDWGMEDIDHVFSEEDYRTLTNYKAFSQFVRPLIAAKNPKIAVSKMMMVLGAKWREFSTNNPFKGSSGASVAAAAAAAVAVVESMVTATEVAPPPPPVEVPIRKAKTKEGKGPNARRKPKGSPRVPDAKKPKPKKVAPLKIKLGGFGSKRKRSSSEDDDLDVESDFDDASINSYSVSDGSTSRSSRSRKKLRTTKKKKKGEEEVTAVDGYETDHQDYCEVCQQGGEIILCDTCPRAYHMVCLDPDMEKAPEGKWSCPHCEKEGIQWEAKEDNSEGEEILEEVGGDLEEEDDHHMEFCRVCKDGGELLCCDTCPSSYHIHCLNPPLPEIPNGEWLCPRCTCPALKGKVQKILIWKWGQPPSPTPVPRPPDADPNTPSPKPLEGRPERQFFVKWQGMSYWHCSWVSELQLELHCQVMFRNYQRKNDMDEPPSGDFGGDEEKSRKRKNKDPKFAEMEERFYRYGIKPEWMMIHRILNHSVDKKGHVHYLIKWRDLPYDQASWESEDVEIQDYDLFKQSYWNHRELMRGEEGRPGKKLKKVKLRKLERPPETPTVDPTVKYERQPEYLDATGGTLHPYQMEGLNWLRFSWAQGTDTILADEMGLGKTVQTAVFLYSLYKEGHSKGPFLVSAPLSTIINWEREFEMWAPDMYVVTYVGDKDSRAIIRENEFSFEDNAIRGGKKASRMKKEASVKFHVLLTSYELITIDMAILGSIDWACLIVDEAHRLKNNQSKFFRVLNGYSLQHKLLLTGTPLQNNLEELFHLLNFLTPERFHNLEGFLEEFADIAKEDQIKKLHDMLGPHMLRRLKADVFKNMPSKTELIVRVELSPMQKKYYKYILTRNFEALNARGGGNQVSLLNVVMDLKKCCNHPYLFPVAAMEAPKMPNGMYDGSALIRASGKLLLLQKMLKNLKEGGHRVLIFSQMTKMLDLLEDFLEHEGYKYERIDGGITGNMRQEAIDRFNAPGAQQFCFLLSTRAGGLGINLATADTVIIYDSDWNPHNDIQAFSRAHRIGQNKKVMIYRFVTRASVEERITQVAKKKMMLTHLVVRPGLGSKTGSMSKQELDDILKFGTEELFKDEATDGGGDNKEGEDSSVIHYDDKAIERLLDRNQDETEDTELQGMNEYLSSFKVAQYVVREEEMGEEEEVEREIIKQEESVDPDYWEKLLRHHYEQQQEDLARNLGKGKRIRKQVNYNDGSQEDRDWQDDQSDNQSDYSVASEEGDEDFDERSEAPRRPSRKGLRNDKDKPLPPLLARVGGNIEVLGFNARQRKAFLNAIMRYGMPPQDAFTTQWLVRDLRGKSEKEFKAYVSLFMRHLCEPGADGAETFADGVPREGLSRQHVLTRIGVMSLIRKKVQEFEHVNGRWSMPELAEVEENKKMSQPGSPSPKT
Q: How did the Kd turn out when B1 was run?
A: Its Kd is 210 nM.

B2: CHD4(1–1380) (domain or fragment)
chain: MASGLGSPSPCSAGSEEEDMDALLNNSLPPPHPENEEDPEEDLSETETPKLKKKKKPKKPRDPKIPKSKRQKKERMLLCRQLGDSSGEGPEFVEEEEEVALRSDSEGSDYTPGKKKKKKLGPKKEKKSKSKRKEEEEEEDDDDDSKEPKSSAQLLEDWGMEDIDHVFSEEDYRTLTNYKAFSQFVRPLIAAKNPKIAVSKMMMVLGAKWREFSTNNPFKGSSGASVAAAAAAAVAVVESMVTATEVAPPPPPVEVPIRKAKTKEGKGPNARRKPKGSPRVPDAKKPKPKKVAPLKIKLGGFGSKRKRSSSEDDDLDVESDFDDASINSYSVSDGSTSRSSRSRKKLRTTKKKKKGEEEVTAVDGYETDHQDYCEVCQQGGEIILCDTCPRAYHMVCLDPDMEKAPEGKWSCPHCEKEGIQWEAKEDNSEGEEILEEVGGDLEEEDDHHMEFCRVCKDGGELLCCDTCPSSYHIHCLNPPLPEIPNGEWLCPRCTCPALKGKVQKILIWKWGQPPSPTPVPRPPDADPNTPSPKPLEGRPERQFFVKWQGMSYWHCSWVSELQLELHCQVMFRNYQRKNDMDEPPSGDFGGDEEKSRKRKNKDPKFAEMEERFYRYGIKPEWMMIHRILNHSVDKKGHVHYLIKWRDLPYDQASWESEDVEIQDYDLFKQSYWNHRELMRGEEGRPGKKLKKVKLRKLERPPETPTVDPTVKYERQPEYLDATGGTLHPYQMEGLNWLRFSWAQGTDTILADEMGLGKTVQTAVFLYSLYKEGHSKGPFLVSAPLSTIINWEREFEMWAPDMYVVTYVGDKDSRAIIRENEFSFEDNAIRGGKKASRMKKEASVKFHVLLTSYELITIDMAILGSIDWACLIVDEAHRLKNNQSKFFRVLNGYSLQHKLLLTGTPLQNNLEELFHLLNFLTPERFHNLEGFLEEFADIAKEDQIKKLHDMLGPHMLRRLKADVFKNMPSKTELIVRVELSPMQKKYYKYILTRNFEALNARGGGNQVSLLNVVMDLKKCCNHPYLFPVAAMEAPKMPNGMYDGSALIRASGKLLLLQKMLKNLKEGGHRVLIFSQMTKMLDLLEDFLEHEGYKYERIDGGITGNMRQEAIDRFNAPGAQQFCFLLSTRAGGLGINLATADTVIIYDSDWNPHNDIQAFSRAHRIGQNKKVMIYRFVTRASVEERITQVAKKKMMLTHLVVRPGLGSKTGSMSKQELDDILKFGTEELFKDEATDGGGDNKEGEDSSVIHYDDKAIERLLDRNQDETEDTELQGMNEYLSSFKVAQYVVREEEMGEEEEVEREIIKQEESVDPDYWEKLLRHHYEQQQEDLARNLGKGKRIRKQVNYNDGSQEDRDWQDDQSDNQSDYSVASEEGDEDFDER
Q: For B2, which Kd is on record?
A: The Kd was 430 nM.

B3: CHD4(1–1810) (domain or fragment)
chain: MASGLGSPSPCSAGSEEEDMDALLNNSLPPPHPENEEDPEEDLSETETPKLKKKKKPKKPRDPKIPKSKRQKKERMLLCRQLGDSSGEGPEFVEEEEEVALRSDSEGSDYTPGKKKKKKLGPKKEKKSKSKRKEEEEEEDDDDDSKEPKSSAQLLEDWGMEDIDHVFSEEDYRTLTNYKAFSQFVRPLIAAKNPKIAVSKMMMVLGAKWREFSTNNPFKGSSGASVAAAAAAAVAVVESMVTATEVAPPPPPVEVPIRKAKTKEGKGPNARRKPKGSPRVPDAKKPKPKKVAPLKIKLGGFGSKRKRSSSEDDDLDVESDFDDASINSYSVSDGSTSRSSRSRKKLRTTKKKKKGEEEVTAVDGYETDHQDYCEVCQQGGEIILCDTCPRAYHMVCLDPDMEKAPEGKWSCPHCEKEGIQWEAKEDNSEGEEILEEVGGDLEEEDDHHMEFCRVCKDGGELLCCDTCPSSYHIHCLNPPLPEIPNGEWLCPRCTCPALKGKVQKILIWKWGQPPSPTPVPRPPDADPNTPSPKPLEGRPERQFFVKWQGMSYWHCSWVSELQLELHCQVMFRNYQRKNDMDEPPSGDFGGDEEKSRKRKNKDPKFAEMEERFYRYGIKPEWMMIHRILNHSVDKKGHVHYLIKWRDLPYDQASWESEDVEIQDYDLFKQSYWNHRELMRGEEGRPGKKLKKVKLRKLERPPETPTVDPTVKYERQPEYLDATGGTLHPYQMEGLNWLRFSWAQGTDTILADEMGLGKTVQTAVFLYSLYKEGHSKGPFLVSAPLSTIINWEREFEMWAPDMYVVTYVGDKDSRAIIRENEFSFEDNAIRGGKKASRMKKEASVKFHVLLTSYELITIDMAILGSIDWACLIVDEAHRLKNNQSKFFRVLNGYSLQHKLLLTGTPLQNNLEELFHLLNFLTPERFHNLEGFLEEFADIAKEDQIKKLHDMLGPHMLRRLKADVFKNMPSKTELIVRVELSPMQKKYYKYILTRNFEALNARGGGNQVSLLNVVMDLKKCCNHPYLFPVAAMEAPKMPNGMYDGSALIRASGKLLLLQKMLKNLKEGGHRVLIFSQMTKMLDLLEDFLEHEGYKYERIDGGITGNMRQEAIDRFNAPGAQQFCFLLSTRAGGLGINLATADTVIIYDSDWNPHNDIQAFSRAHRIGQNKKVMIYRFVTRASVEERITQVAKKKMMLTHLVVRPGLGSKTGSMSKQELDDILKFGTEELFKDEATDGGGDNKEGEDSSVIHYDDKAIERLLDRNQDETEDTELQGMNEYLSSFKVAQYVVREEEMGEEEEVEREIIKQEESVDPDYWEKLLRHHYEQQQEDLARNLGKGKRIRKQVNYNDGSQEDRDWQDDQSDNQSDYSVASEEGDEDFDERSEAPRRPSRKGLRNDKDKPLPPLLARVGGNIEVLGFNARQRKAFLNAIMRYGMPPQDAFTTQWLVRDLRGKSEKEFKAYVSLFMRHLCEPGADGAETFADGVPREGLSRQHVLTRIGVMSLIRKKVQEFEHVNGRWSMPELAEVEENKKMSQPGSPSPKTPTPSTPGDTQPNTPAPVPPAEDGIKIEENSLKEEESIEGEKEVKSTAPETAIECTQAPAPASEDEKVVVEPPEGEEKVEKAEVKERTEEPMETEPKGAADVEKVEEKSAIDLTPIVVEDKEEKKEEEEKKEVMLQNGETPKDLNDEKQKKNIKQRFMFNIADGGFTELHSLWQNEERAATVTKKTYEIWHRRHDYWLLAGIINHGYARWQDIQNDPRYAILNEPFKGEMNRGNFLEIKNKFLARRFKLLEQALVIEEQLRRAAYLNMSED
Q: Which Kd does the source give for B3 here?
A: The Kd was 150 nM.

B4: CHD4(1–1230) (domain or fragment)
chain: MASGLGSPSPCSAGSEEEDMDALLNNSLPPPHPENEEDPEEDLSETETPKLKKKKKPKKPRDPKIPKSKRQKKERMLLCRQLGDSSGEGPEFVEEEEEVALRSDSEGSDYTPGKKKKKKLGPKKEKKSKSKRKEEEEEEDDDDDSKEPKSSAQLLEDWGMEDIDHVFSEEDYRTLTNYKAFSQFVRPLIAAKNPKIAVSKMMMVLGAKWREFSTNNPFKGSSGASVAAAAAAAVAVVESMVTATEVAPPPPPVEVPIRKAKTKEGKGPNARRKPKGSPRVPDAKKPKPKKVAPLKIKLGGFGSKRKRSSSEDDDLDVESDFDDASINSYSVSDGSTSRSSRSRKKLRTTKKKKKGEEEVTAVDGYETDHQDYCEVCQQGGEIILCDTCPRAYHMVCLDPDMEKAPEGKWSCPHCEKEGIQWEAKEDNSEGEEILEEVGGDLEEEDDHHMEFCRVCKDGGELLCCDTCPSSYHIHCLNPPLPEIPNGEWLCPRCTCPALKGKVQKILIWKWGQPPSPTPVPRPPDADPNTPSPKPLEGRPERQFFVKWQGMSYWHCSWVSELQLELHCQVMFRNYQRKNDMDEPPSGDFGGDEEKSRKRKNKDPKFAEMEERFYRYGIKPEWMMIHRILNHSVDKKGHVHYLIKWRDLPYDQASWESEDVEIQDYDLFKQSYWNHRELMRGEEGRPGKKLKKVKLRKLERPPETPTVDPTVKYERQPEYLDATGGTLHPYQMEGLNWLRFSWAQGTDTILADEMGLGKTVQTAVFLYSLYKEGHSKGPFLVSAPLSTIINWEREFEMWAPDMYVVTYVGDKDSRAIIRENEFSFEDNAIRGGKKASRMKKEASVKFHVLLTSYELITIDMAILGSIDWACLIVDEAHRLKNNQSKFFRVLNGYSLQHKLLLTGTPLQNNLEELFHLLNFLTPERFHNLEGFLEEFADIAKEDQIKKLHDMLGPHMLRRLKADVFKNMPSKTELIVRVELSPMQKKYYKYILTRNFEALNARGGGNQVSLLNVVMDLKKCCNHPYLFPVAAMEAPKMPNGMYDGSALIRASGKLLLLQKMLKNLKEGGHRVLIFSQMTKMLDLLEDFLEHEGYKYERIDGGITGNMRQEAIDRFNAPGAQQFCFLLSTRAGGLGINLATADTVIIYDSDWNPHNDIQAFSRAHRIGQNKKVMIYRFVTRASVEERITQVAKKKMMLTHLVVRPGLGSKTGSMSKQELDDILKFGTEELFKDE
Q: Which Kd does the source give for B4 here?
A: The Kd was 250 nM.
